The chains are these.
B1: PR70 (108-575), wild type (domain or fragment)
chain: VVQTRKEEPLPPATSQSIPTFYFPRGRPQDSVNVDAVISKIESTFARFPHERATMDDMGLVAKACGCPLYWKGPLFYGAGGERTGSVSVHKFVAMWRKILQNCHDDAAKFVHLLMSPGCNYLVQEDFVPFLQDVVNTHPGLSFLKEASEFHSRYITTVIQRIFYAVNRSWSGRITCAELRRSSFLQNVALLEEEADINQLTEFFSYEHFYVIYCKFWELDTDHDLLIDADDLARHNDHALSTKMIDRIFSGAVTRGRKVQKEGKISYADFVWFLISEEDKKTPTSIEYWFRCMDLDGDGALSMFELEYFYEEQCRRLDSMAIEALPFQDCLCQMLDLVKPRTEGKITLQDLKRCKLANVFFDTFFNIEKYLDHEQKEQISLLRDGDSGGPELSDWEKYAAEEYDILVAEETAGEPWEDGFEAELSPVEQKLSALRSPLAQRPFFEAPSPLGAVDLYEYACGDEDLEPL
B3: PR70 (108-575) F128A (domain or fragment)
chain: VVQTRKEEPLPPATSQSIPTAYFPRGRPQDSVNVDAVISKIESTFARFPHERATMDDMGLVAKACGCPLYWKGPLFYGAGGERTGSVSVHKFVAMWRKILQNCHDDAAKFVHLLMSPGCNYLVQEDFVPFLQDVVNTHPGLSFLKEASEFHSRYITTVIQRIFYAVNRSWSGRITCAELRRSSFLQNVALLEEEADINQLTEFFSYEHFYVIYCKFWELDTDHDLLIDADDLARHNDHALSTKMIDRIFSGAVTRGRKVQKEGKISYADFVWFLISEEDKKTPTSIEYWFRCMDLDGDGALSMFELEYFYEEQCRRLDSMAIEALPFQDCLCQMLDLVKPRTEGKITLQDLKRCKLANVFFDTFFNIEKYLDHEQKEQISLLRDGDSGGPELSDWEKYAAEEYDILVAEETAGEPWEDGFEAELSPVEQKLSALRSPLAQRPFFEAPSPLGAVDLYEYACGDEDLEPL
B4: PR70 (108-575) D443K (domain or fragment)
chain: VVQTRKEEPLPPATSQSIPTFYFPRGRPQDSVNVDAVISKIESTFARFPHERATMDDMGLVAKACGCPLYWKGPLFYGAGGERTGSVSVHKFVAMWRKILQNCHDDAAKFVHLLMSPGCNYLVQEDFVPFLQDVVNTHPGLSFLKEASEFHSRYITTVIQRIFYAVNRSWSGRITCAELRRSSFLQNVALLEEEADINQLTEFFSYEHFYVIYCKFWELDTDHDLLIDADDLARHNDHALSTKMIDRIFSGAVTRGRKVQKEGKISYADFVWFLISEEDKKTPTSIEYWFRCMDLDGDGALSMFELEYFYEEQCRRLDSMAIEALPFQDCLCQMLKLVKPRTEGKITLQDLKRCKLANVFFDTFFNIEKYLDHEQKEQISLLRDGDSGGPELSDWEKYAAEEYDILVAEETAGEPWEDGFEAELSPVEQKLSALRSPLAQRPFFEAPSPLGAVDLYEYACGDEDLEPL

Assay [1] addresses GST-tagged PP2A core enzyme (GST-A bound to PP2Ac) (UniProt P30153 9-589; P67775 1-309). Nature of the assay: pull-down.
For assay [2], the target named is B3. The assay is described as follows: pull-down.
The target of assay [3] is B4. Nature of the assay: pull-down.
Assay [4] concerns the target B1. Nature of the assay: pull-down.
The target in assay [5] is T1, PR70 (108-575) R398D (UniProt Q9Y5P8 108-575, R398D).
T1 sequence: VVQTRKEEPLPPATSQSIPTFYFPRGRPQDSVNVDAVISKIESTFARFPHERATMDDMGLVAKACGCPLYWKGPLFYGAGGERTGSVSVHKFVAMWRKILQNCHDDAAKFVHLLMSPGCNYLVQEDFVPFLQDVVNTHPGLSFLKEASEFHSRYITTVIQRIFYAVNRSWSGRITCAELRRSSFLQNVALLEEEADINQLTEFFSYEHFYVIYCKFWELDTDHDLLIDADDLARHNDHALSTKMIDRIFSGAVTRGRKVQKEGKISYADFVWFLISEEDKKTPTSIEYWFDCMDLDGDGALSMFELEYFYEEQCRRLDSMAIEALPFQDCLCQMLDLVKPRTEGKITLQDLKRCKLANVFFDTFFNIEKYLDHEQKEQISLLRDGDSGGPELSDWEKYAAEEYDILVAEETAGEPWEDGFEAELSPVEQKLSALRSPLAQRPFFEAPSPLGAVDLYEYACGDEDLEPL
The assay is described as follows: pull-down.

Assay [6] has as its target PP2A holoenzyme containing PR70 (108-519) (UniProt P30153 9-589; P67775 1-309; Q9Y5P8 108-519). The assay is described as follows: SEC.
Assay [7] concerns the target PP2A scaffold subunit Aα (9-589) (UniProt P30153 9-589). Nature of the assay: crystal structure.
Assay [8] addresses PP2A catalytic subunit Cα (1-309), methylated (UniProt P67775 1-309, fully methylated by LCMT-1 (residue not stated)). The assay is described as follows: crystal structure.
For assay [9], the target named is PP2A core enzyme (Aα-Cα heterodimer) (UniProt P30153 9-589; P67775 1-309). The assay is described as follows: SEC.
Sequence of PP2A core enzyme (Aα-Cα heterodimer) (P30153 9-589, chain 1 of 2): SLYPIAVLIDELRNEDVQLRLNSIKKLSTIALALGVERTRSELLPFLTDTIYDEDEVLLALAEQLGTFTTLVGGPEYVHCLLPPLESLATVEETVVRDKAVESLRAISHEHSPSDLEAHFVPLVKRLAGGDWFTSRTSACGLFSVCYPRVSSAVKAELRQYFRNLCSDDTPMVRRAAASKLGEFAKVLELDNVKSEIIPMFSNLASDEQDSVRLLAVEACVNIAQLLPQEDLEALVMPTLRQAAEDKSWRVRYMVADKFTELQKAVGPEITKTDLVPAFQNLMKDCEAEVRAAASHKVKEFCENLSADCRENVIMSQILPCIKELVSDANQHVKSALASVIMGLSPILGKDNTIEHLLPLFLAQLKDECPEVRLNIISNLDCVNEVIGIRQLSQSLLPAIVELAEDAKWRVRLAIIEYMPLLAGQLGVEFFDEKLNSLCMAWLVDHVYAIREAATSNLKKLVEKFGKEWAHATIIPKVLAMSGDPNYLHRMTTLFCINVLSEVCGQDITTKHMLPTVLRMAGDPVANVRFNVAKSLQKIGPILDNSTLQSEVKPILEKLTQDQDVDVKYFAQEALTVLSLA
Sequence of PP2A core enzyme (Aα-Cα heterodimer) (P67775 whole entry, chain 2 of 2): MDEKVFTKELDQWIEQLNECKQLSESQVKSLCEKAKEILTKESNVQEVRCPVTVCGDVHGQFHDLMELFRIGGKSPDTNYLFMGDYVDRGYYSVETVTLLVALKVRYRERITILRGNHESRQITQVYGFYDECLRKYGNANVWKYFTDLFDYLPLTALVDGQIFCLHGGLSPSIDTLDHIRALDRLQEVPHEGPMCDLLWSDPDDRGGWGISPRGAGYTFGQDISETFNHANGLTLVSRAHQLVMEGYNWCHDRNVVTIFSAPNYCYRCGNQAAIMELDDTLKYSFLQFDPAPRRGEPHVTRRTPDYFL

Sequence of GST-tagged PP2A core enzyme (GST-A bound to PP2Ac) (P30153 9-589, chain 1 of 2): as the sequence (P30153 9-589, chain 1 of 2) above
Sequence of GST-tagged PP2A core enzyme (GST-A bound to PP2Ac) (P67775 whole entry, chain 2 of 2): as the sequence (P67775 whole entry, chain 2 of 2) above
Sequence of PP2A holoenzyme containing PR70 (108-519) (P30153 9-589, chain 1 of 2): as the sequence (P30153 9-589, chain 1 of 2) above
Sequence of PP2A holoenzyme containing PR70 (108-519) (P67775 whole entry, chain 2 of 2): as the sequence (P67775 whole entry, chain 2 of 2) above
Sequence of PP2A scaffold subunit Aα (9-589) (P30153 9-589): as the sequence (P30153 9-589, chain 1 of 2) above
Sequence of PP2A catalytic subunit Cα (1-309), methylated (P67775 whole entry): as the sequence (P67775 whole entry, chain 2 of 2) above

As for B1, the binding result in assay [1] is given as “binds”.

B2: GST-Cdc6 (18-90) (domain or fragment)
chain: KLSRALNKAKNSSDAKLEPTNVQTVTCSPRVKALPLSPRKRLGDDNLCNTPHLPPCSPPKQGKKENGPPHSHT
With B2, the binding result in assay [2], in assay [3], in assay [4] and in assay [5] was “binds” in each case. In the case of B3, the “fold reduction of binding affinity against wild-type PR70 (108-575)” value in assay [1] is ~4 fold. The same measure, in the same setting: the value for B4 was ~2 fold. In the case of KALPLSPRKRLGDDNLCNTPHLPPCSPPKQGKKENGPPHSHT (domain or fragment) [GST-Cdc6 (49-90)], in assay [6], the binding result was “binds”.

B5: PR70 (122-490) fused to Cdc6 (70-90) via a flexible linker (other)
chain: SQSIPTFYFPRGRPQDSVNVDAVISKIESTFARFPHERATMDDMGLVAKACGCPLYWKGPLFYGAGGERTGSVSVHKFVAMWRKILQNCHDDAAKFVHLLMSPGCNYLVQEDFVPFLQDVVNTHPGLSFLKEASEFHSRYITTVIQRIFYAVNRSWSGRITCAELRRSSFLQNVALLEEEADINQLTEFFSYEHFYVIYCKFWELDTDHDLLIDADDLARHNDHALSTKMIDRIFSGAVTRGRKVQKEGKISYADFVWFLISEEDKKTPTSIEYWFRCMDLDGDGALSMFELEYFYEEQCRRLDSMAIEALPFQDCLCQMLDLVKPRTEGKITLQDLKRCKLANVFFDTFFNIEKYLDHEQKEQISLLRSTGNASDSSSDSSSSEGDGTVLPPCSPPKQGKKENGPPHSHT
Turning to B5, the binding result in assay [7] and in assay [8] was “binds” in each case.

B6: PR70 (108-519) (domain or fragment)
chain: VVQTRKEEPLPPATSQSIPTFYFPRGRPQDSVNVDAVISKIESTFARFPHERATMDDMGLVAKACGCPLYWKGPLFYGAGGERTGSVSVHKFVAMWRKILQNCHDDAAKFVHLLMSPGCNYLVQEDFVPFLQDVVNTHPGLSFLKEASEFHSRYITTVIQRIFYAVNRSWSGRITCAELRRSSFLQNVALLEEEADINQLTEFFSYEHFYVIYCKFWELDTDHDLLIDADDLARHNDHALSTKMIDRIFSGAVTRGRKVQKEGKISYADFVWFLISEEDKKTPTSIEYWFRCMDLDGDGALSMFELEYFYEEQCRRLDSMAIEALPFQDCLCQMLDLVKPRTEGKITLQDLKRCKLANVFFDTFFNIEKYLDHEQKEQISLLRDGDSGGPELSDWEKYAAEEYDILVAEETA
For B6, in [9], the binding result was “binds”.

For the origin of these results see paper PMC3698643 (Cell Research, 2013).
